The record followed here is patent US20260275304A1, “METHODS AND COMPOSITIONS FOR GLYPHOSATE TOLERANCE IN PLANTS” (Monsanto Technology LLC, priority 2023, published 2026).

This assay concerns S. cerevisiae strain sKR-024. As to the kind of experiment: Growth of synthetic yeast strain sKR-024 expressing EPSPS variants with or without glyphosate. In kind it is cell-based, Saccharomyces cerevisiae. The settings on record: for growth in yeast minimal media without glyphosate: 0 mM glyphosate; for order of glyphosate tolerance: 5 mM glyphosate, FIG. 1 Panel C; for glyphosate tolerance in synthetic yeast host: mutants isolated from directed evolution. The protocol:
EPSPS variants were re-cloned into a clean p416-Core1p backbone and transformed into strain sKR-024 as described above. Colonies were then picked in triplicate into YSC-Ura-Leu and outgrown for 2 days at 30° C. Cultures were then diluted back to OD 0.001 in yeast minimal media (YMM) containing varying amounts of glyphosate as indicated. Growth rate measurements were then obtained using an Infinite M200 PRO microplate reader (Tecan, Männedorf, Switzerland) with incubation at 30° C. for 72-120 hours depending on growth rate of selected variants.
To determine if this system could further corroborate observations from previous literature, the well-studied EPSPS mutants T102I and P106S, and the combined double mutant TIPS (T102I-P106S) were generated and complemented into this yeast system. These mutations were reported to result in varying degrees of glyphosate resistance.
Having established low copy number and weak promoter expression of EPSPS variants, it was sought to recharacterize phenotypes under field conditions that are used in planta. […] It has been reported previously that under standard glyphosate foliar application, 0.3 mM or more of glyphosate (gly) can accumulate in a plant's root nodules and meristems. […] These trends support reported literature of mutants P106S and TIPS grown in various plant hosts. As a result, the present synthetic yeast model system closely resembles in planta observations and thus can be used to select for dual-trait EPSPS variants aimed at both enzymatic efficiency and glyphosate resistance.
Select mutants isolated from the final directed evolution campaign with the improved selection strategy were further evaluated in assorted glyphosate concentrations to determine growth characteristics. Mutants isolated from an EPSPS background were evaluated in media containing 0 mM and 0.25 mM glyphosate with the latter being the concentration at which wild-type EPSPS cannot grow after 100 hours. […] The non-glyphosate mono selection highlighted in blue represents mutations resulting from 5 subcultures in 0 mM glyphosate. The low glyphosate dual selection highlighted in light green represents mutants resulting from an additional subculture into 0.5 mM glyphosate. Lastly, the high glyphosate dual selection highlighted in dark green represent mutations isolated after subcultures in increasing levels of glyphosate, up to 10 mM.

B1: P106S: well-studied EPSPS single mutant P106S (protein)
chain: AGAEEIVLQPIKEISGTVKLPGSKSLSNRILLLAALSEGTTVVDNLLNSEDVHYMLGALRTLGLSVEADKAAKRAVVVGCGGKFPVEDSKEEVQLFLGNAGTAMRSLTAAVTAAGGNATYVLDGVPRMRERPIGDLVVGLKQLGADVDCFLGTDCPPVRVNGIGGLPGGKVKLSGSISSQYLSALLMAAPLALGDVEIEIIDKLISIPYVEMTLRLMERFGVKAEHSDSWDRFYIKGGQKYKSPKNAYVEGDASSASYFLAGAAITGGTVTVEGCGTTSLQGDVKFAEVLEMMGAKVTWTETSVTVTGPPREPFGRKHLKAIDVNMNKMPDVAMTLAVVALFADGPTAIRDVASWRVKETERMVAIRTELTKLGASVEEGPDYCIITPPEKLNVTAIDTYDDHRMAMAFSLAACAEVPVAIRDPGCTRKTFPDYFDVLSTFVKN
Consider B1, for which the “growth in yeast minimal media without glyphosate” value was “grew very similarly” and the “order of glyphosate tolerance” value is listed as “P106S<T102I<TIPS”. Also, the growth in glyphosate entry (0.5 mM glyphosate, Core1p promoter) is “slightly higher growth than EPSPS after 80 hours”. In addition, the growth in glyphosate result (5 mM glyphosate (high levels)) is on record as “no growth”.

B2: P106S-K296R: P106S scaffold carrying ported mutation(s), as worded in b196 (protein)
chain: AGAEEIVLQPIKEISGTVKLPGSKSLSNRILLLAALSEGTTVVDNLLNSEDVHYMLGALRTLGLSVEADKAAKRAVVVGCGGKFPVEDSKEEVQLFLGNAGTAMRSLTAAVTAAGGNATYVLDGVPRMRERPIGDLVVGLKQLGADVDCFLGTDCPPVRVNGIGGLPGGKVKLSGSISSQYLSALLMAAPLALGDVEIEIIDKLISIPYVEMTLRLMERFGVKAEHSDSWDRFYIKGGQKYKSPKNAYVEGDASSASYFLAGAAITGGTVTVEGCGTTSLQGDVKFAEVLEMMGARVTWTETSVTVTGPPREPFGRKHLKAIDVNMNKMPDVAMTLAVVALFADGPTAIRDVASWRVKETERMVAIRTELTKLGASVEEGPDYCIITPPEKLNVTAIDTYDDHRMAMAFSLAACAEVPVAIRDPGCTRKTFPDYFDVLSTFVKN
B2: the growth in glyphosate entry (5 mM glyphosate (high levels)) is recorded as “observable growth”.

B3: T102I: well-studied EPSPS single mutant T102I (protein)
chain: AGAEEIVLQPIKEISGTVKLPGSKSLSNRILLLAALSEGTTVVDNLLNSEDVHYMLGALRTLGLSVEADKAAKRAVVVGCGGKFPVEDSKEEVQLFLGNAGIAMRPLTAAVTAAGGNATYVLDGVPRMRERPIGDLVVGLKQLGADVDCFLGTDCPPVRVNGIGGLPGGKVKLSGSISSQYLSALLMAAPLALGDVEIEIIDKLISIPYVEMTLRLMERFGVKAEHSDSWDRFYIKGGQKYKSPKNAYVEGDASSASYFLAGAAITGGTVTVEGCGTTSLQGDVKFAEVLEMMGAKVTWTETSVTVTGPPREPFGRKHLKAIDVNMNKMPDVAMTLAVVALFADGPTAIRDVASWRVKETERMVAIRTELTKLGASVEEGPDYCIITPPEKLNVTAIDTYDDHRMAMAFSLAACAEVPVAIRDPGCTRKTFPDYFDVLSTFVKN
As to B3, the “order of glyphosate tolerance” value is “P106S<T102I<TIPS”.

B4: TIPS-V66L-M104L: maize EPSPS variant, SEQ ID NO:17 (protein)
chain: AGAEEIVLQPIKEISGTVKLPGSKSLSNRILLLAALSEGTTVVDNLLNSEDVHYMLGALRTLGLSLEADKAAKRAVVVGCGGKFPVEDSKEEVQLFLGNAGIALRSLTAAVTAAGGNATYVLDGVPRMRERPIGDLVVGLKQLGADVDCFLGTDCPPVRVNGIGGLPGGKVKLSGSISSQYLSALLMAAPLALGDVEIEIIDKLISIPYVEMTLRLMERFGVKAEHSDSWDRFYIKGGQKYKSPKNAYVEGDASSASYFLAGAAITGGTVTVEGCGTTSLQGDVKFAEVLEMMGAKVTWTETSVTVTGPPREPFGRKHLKAIDVNMNKMPDVAMTLAVVALFADGPTAIRDVASWRVKETERMVAIRTELTKLGASVEEGPDYCIITPPEKLNVTAIDTYDDHRMAMAFSLAACAEVPVAIRDPGCTRKTFPDYFDVLSTFVKN
modifications: Zea mays
Regarding B4, the “growth in yeast minimal media without glyphosate” value is reported as “high growth in non-glyphosate” and the “glyphosate tolerance in synthetic yeast host” value is listed as “high glyphosate tolerance”.

B5: TIPS-P126L: maize EPSPS variant, SEQ ID NO:22 (protein)
chain: AGAEEIVLQPIKEISGTVKLPGSKSLSNRILLLAALSEGTTVVDNLLNSEDVHYMLGALRTLGLSVEADKAAKRAVVVGCGGKFPVEDSKEEVQLFLGNAGIAMRSLTAAVTAAGGNATYVLDGVLRMRERPIGDLVVGLKQLGADVDCFLGTDCPPVRVNGIGGLPGGKVKLSGSISSQYLSALLMAAPLALGDVEIEIIDKLISIPYVEMTLRLMERFGVKAEHSDSWDRFYIKGGQKYKSPKNAYVEGDASSASYFLAGAAITGGTVTVEGCGTTSLQGDVKFAEVLEMMGAKVTWTETSVTVTGPPREPFGRKHLKAIDVNMNKMPDVAMTLAVVALFADGPTAIRDVASWRVKETERMVAIRTELTKLGASVEEGPDYCIITPPEKLNVTAIDTYDDHRMAMAFSLAACAEVPVAIRDPGCTRKTFPDYFDVLSTFVKN
modifications: Zea mays
Regarding B5, the “glyphosate tolerance in synthetic yeast host” value is “moderate glyphosate tolerance”.

B6: TIPS-1177V: maize EPSPS variant, SEQ ID NO:21 (protein)
chain: AGAEEIVLQPIKEISGTVKLPGSKSLSNRILLLAALSEGTTVVDNLLNSEDVHYMLGALRTLGLSVEADKAAKRAVVVGCGGKFPVEDSKEEVQLFLGNAGIAMRSLTAAVTAAGGNATYVLDGVPRMRERPIGDLVVGLKQLGADVDCFLGTDCPPVRVNGIGGLPGGKVKLSGSVSSQYLSALLMAAPLALGDVEIEIIDKLISIPYVEMTLRLMERFGVKAEHSDSWDRFYIKGGQKYKSPKNAYVEGDASSASYFLAGAAITGGTVTVEGCGTTSLQGDVKFAEVLEMMGAKVTWTETSVTVTGPPREPFGRKHLKAIDVNMNKMPDVAMTLAVVALFADGPTAIRDVASWRVKETERMVAIRTELTKLGASVEEGPDYCIITPPEKLNVTAIDTYDDHRMAMAFSLAACAEVPVAIRDPGCTRKTFPDYFDVLSTFVKN
modifications: Zea mays
In the case of B6, the “glyphosate tolerance in synthetic yeast host” value was “moderate glyphosate tolerance”.
